Data: the supplement of paper PMC12042874
± gives the uncertainty stated by the source.

Experiment: amyloid nucleation score (Sup35N fusion, yeast selection) (log enrichment); library NNK2; higher = more nucleation; inactive = no reads after selection
How it was run: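 The nucleation score is the DiMSum log enrichment of output over input reads, centred on the mode score of non-aggregating sequences. Only sequences with 100 or more input reads were scored, using Illumina sequencing of input and output plasmid inserts. Psi-negative yeast expressing Sup35N fused to peptides of 20 random codons were induced 24 hours with 100 μM copper sulfate and grown 7 days at 30°C on medium lacking adenine and uracil.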
Work on IIVCVSGIYLSMSQ yielded an amyloid nucleation score of 6.007 ± 0.035. Work on IIVIVWQGWSNGVGLHSCGA yielded an amyloid nucleation score of 3.15 ± 0.063. With IIWVHSTIPSRVNR the amyloid nucleation score was -0.183 ± 1. Substance IKDKSHLRRIVLVTEYTRRD has an amyloid nucleation score of 0.179 ± 0.34. For IKNVWFQFSCGGPGSLRVGS, the amyloid nucleation score was 0.318 ± 0.32. IKSVFMCYWGLDAVGVTAER gave an amyloid nucleation score of 8.785 ± 0.047. With IKTGSGVARVGYFLC the amyloid nucleation score was 0.42 ± 0.47. Substance ILAGSAFCLLCCVKAGWSDE has an amyloid nucleation score of 6.41 ± 0.086. In the case of ILDCLRVRESDHVSGRNRVC, the amyloid nucleation score is reported as 0.509 ± 0.37. For ILHPGSNLPRCRDMCILKGW, the amyloid nucleation score was -0.226 ± 0.54. With ILINCSRWEGRTSCVTLAQQ the amyloid nucleation score was 2.27 ± 0.12. ILLFELNAPFVEYSNAFG gave an amyloid nucleation score of 3 ± 0.045. For ILLNTSYVYLTDSMEFTVGL, the amyloid nucleation score was 2.15 ± 0.14. For ILMMNLNAADRIVNMHMSIL, the amyloid nucleation score was “inactive”. In the case of ILRDVVDLQMHNTWRNRGDQ, the amyloid nucleation score is reported as 3.66 ± 0.063. ILRLIL showed an amyloid nucleation score of 0.531 ± 0.51. ILSCWSCRGRINTY gave an amyloid nucleation score of 1.9 ± 0.14. With ILTGILSLVAYASSPGAPCG the amyloid nucleation score was 2.45 ± 0.22. For ILTTCMNAKKLNLFGYGL, the amyloid nucleation score was -0.291 ± 0.63. With ILWKMTFKAPIAKEFPAKWL the amyloid nucleation score was 0.065 ± 0.56. In the case of ILWNLNY, the amyloid nucleation score is reported as -0.596 ± 0.4. Substance ILYFCRVLITVCMIVDMWGE has an amyloid nucleation score of 0.333 ± 0.64. For ILYGLSVQFLGLFCSYCKSS, the amyloid nucleation score was 6.013 ± 0.058. Substance ILYSSVVSLSCTLAKGNDYT has an amyloid nucleation score of 1.77 ± 0.4. In the case of ILYVCDTRELSGWGGRCYAW, the amyloid nucleation score is reported as 1.73 ± 0.56. With IMCCTRLLNSFSAITIVHIA the amyloid nucleation score was -0.03 ± 0.43. For IMELSFLSWVLRSKMDFHAE, the amyloid nucleation score was 5.34 ± 0.066. For IMGKI, the amyloid nucleation score was 0.163 ± 0.79. IMIMTGWS showed an amyloid nucleation score of -0.984 ± 0.44. Substance IMLAVYPIIEGFIVDNMHRI has an amyloid nucleation score of -1.25 ± 1.1. With IMNRSSSG the amyloid nucleation score was 1.03 ± 0.36. In the case of IMSSISRSNCVSLVV, the amyloid nucleation score is reported as “inactive”. For IMYLVENMCHDKKFYCSVNL, the amyloid nucleation score was 4.34 ± 0.087. INDVLFTTRRGHTIS gave an amyloid nucleation score of 2.75 ± 0.094. INEFCATLQERRMCYLRMKL showed an amyloid nucleation score of 0.921 ± 0.74. INGCNQCALP showed an amyloid nucleation score of -0.408 ± 1. With INIHIFGWLIGLRGCM the amyloid nucleation score was -0.504 ± 1.1. For INMCNP, the amyloid nucleation score was 2.89 ± 0.072. For INNDTVMVVHRRIHLLYYLM, the amyloid nucleation score was “inactive”. INQHEPFPPGVVLKVHKTL gave an amyloid nucleation score of -0.021 ± 0.34. Substance INSQVDGFSEWPGVVQSKTL has an amyloid nucleation score of -0.157 ± 0.38. INVVRTNIKYTMTFCIEGTN gave an amyloid nucleation score of 7.306 ± 0.032. Work on IPAKGRNSHSVSCFF yielded an amyloid nucleation score of -1.07 ± 0.63. Work on IPDHFRTSSAYRLGDRHGG yielded an amyloid nucleation score of 0.103 ± 0.43. In the case of IPIYFSHMNRHWIKCYVLVC, the amyloid nucleation score is reported as -0.913 ± 0.36. Substance IPLLCKFCSRGSRAKIYLMD has an amyloid nucleation score of 1.75 ± 0.095. Substance IPPNGPVYCRYHNRQVCRAG has an amyloid nucleation score of 0.203 ± 0.34. In the case of IPSWCFVIYSRNGYGFLHCT, the amyloid nucleation score is reported as “inactive”. IPTFSSLCLMLRTEGPRVDI gave an amyloid nucleation score of -1.05 ± 1.1. With IQACYGFQSNDVPLISCT the amyloid nucleation score was -1.78 ± 0.49. IQHTVMWNALLLALAVSRLR gave an amyloid nucleation score of 0.667 ± 0.21. IQQFVKVFVGDLNLTVDRNM gave an amyloid nucleation score of 7.554 ± 0.06. In the case of IQSDLNNLLMHVRVFMCSAV, the amyloid nucleation score is reported as 4.05 ± 0.065. With IRCCTYFAALSILLAPIKAG the amyloid nucleation score was 0.322 ± 0.27. With IRCVNIKSLP the amyloid nucleation score was -1.24 ± 1.1. In the case of IRLARISWRSRHYSTHSGVS, the amyloid nucleation score is reported as -0.076 ± 0.31. With IRLDTKDGCRYN the amyloid nucleation score was “inactive”. Work on IRNNPCFQSGDVGY yielded an amyloid nucleation score of -0.088 ± 1.1. IRPSWLKENLRMVYWYKDYP gave an amyloid nucleation score of 2.53 ± 0.077. In the case of IRRWFRLNNGRM, the amyloid nucleation score is reported as -0.113 ± 0.79. For IRVYRGGLFNSLKKENVGAC, the amyloid nucleation score was “inactive”. For IRWAFWSRYGSWAKLSLRIV, the amyloid nucleation score was -0.995 ± 0.56. Substance IRWFTEKISDKHLTGCRGLT has an amyloid nucleation score of 0.345 ± 0.45. Substance ISDATLGFGLIHVGMDVWGC has an amyloid nucleation score of 5.76 ± 0.061. For ISDHTTNKDQRFSYS, the amyloid nucleation score was -0.455 ± 1.1. For ISDMS, the amyloid nucleation score was -0.416 ± 0.28. Work on ISEDIIWC yielded an amyloid nucleation score of 1.24 ± 0.25. With ISEIQDLLGSALTH the amyloid nucleation score was 2.09 ± 0.079. For ISFRFLAFCFFYDKVSLEQK, the amyloid nucleation score was “inactive”. With ISFSSTSIHFGD the amyloid nucleation score was 1.04 ± 0.11. In the case of ISGVSDGQMGFWRNEMGQGS, the amyloid nucleation score is reported as 0.28 ± 0.39. For ISIAGCFNTKILWMFEQ, the amyloid nucleation score was 6.32 ± 0.087. For ISKEMGNYNFGLSKYAKR, the amyloid nucleation score was -1.06 ± 0.3. For ISPLHNSLKALRFGPPYSTL, the amyloid nucleation score was -0.377 ± 0.4. For ISPMWREWTWSHNWCSFPTS, the amyloid nucleation score was “inactive”. In the case of ISRQDRVQWWSYSSTRLA, the amyloid nucleation score is reported as 4.94 ± 0.077. ISSDRIYICL showed an amyloid nucleation score of 5.996 ± 0.059. In the case of ISSKITRLSPGGLVS, the amyloid nucleation score is reported as “inactive”. In the case of ISTFSRVHLSKVYLRDSTIV, the amyloid nucleation score is reported as -1.92 ± 1.1. ISTINNGYVFRLYLGSCILD gave an amyloid nucleation score of 6.02 ± 0.081. With ISTSPMLACVASVRRSLIRT the amyloid nucleation score was 0.098 ± 0.74. Work on ISTYSLCLLSWWH yielded an amyloid nucleation score of 9.469 ± 0.054. In the case of ISVKDCLYPQLL, the amyloid nucleation score is reported as -0.492 ± 1. Work on ISVQATGASESETIPIQTGY yielded an amyloid nucleation score of 2.13 ± 0.11. In the case of ITFYGTF, the amyloid nucleation score is reported as “inactive”. Substance ITHMLLTGIPTQLSRV has an amyloid nucleation score of -0.621 ± 0.74. ITLFDHRSSKTTLKDFAENT gave an amyloid nucleation score of -0.137 ± 1.1. Substance ITPVRTVRMLSRMFNMLSQL has an amyloid nucleation score of 4.83 ± 0.056. In the case of ITSLRSLRYFHVEFVSRLWL, the amyloid nucleation score is reported as 0.554 ± 0.81. ITSSEVGHWYRVTEKCHIRM gave an amyloid nucleation score of 1.2 ± 0.3. ITTFLCSGFCIINAVRNFLS gave an amyloid nucleation score of 2.77 ± 0.12. ITVYLRTRFLGFGFEYE showed an amyloid nucleation score of -0.536 ± 1. ITYNTS gave an amyloid nucleation score of 0.936 ± 0.44. With ITYYHCVSHARNTKNQLTDF the amyloid nucleation score was “inactive”. IVCPKSGNAVVYGLMTMNNK showed an amyloid nucleation score of 0.329 ± 0.62. For IVCQDFYTAWEYYTYAHR, the amyloid nucleation score was 3.07 ± 0.048. With IVDLNLGSEESLFSYLGMSV the amyloid nucleation score was -2.45 ± 0.54. With IVDTRGVPIWREISSIRVDL the amyloid nucleation score was -0.669 ± 0.74. IVEVVFRSIPIAMDSCCCSN showed an amyloid nucleation score of -1.14 ± 0.28. For IVGAIRSKILGTGQTRVIWG, the amyloid nucleation score was 0.477 ± 0.65. In the case of IVGLQVAFFLVFKSVHRDVA, the amyloid nucleation score is reported as “inactive”. With IVLAYSKTPREVN the amyloid nucleation score was -0.086 ± 0.65. For IVLSSYLIWLD, the amyloid nucleation score was “inactive”. With IVLYSGCVYKD the amyloid nucleation score was 0.218 ± 0.33. IVMGLGLGASVSRGWNN gave an amyloid nucleation score of 3.58 ± 0.069. IVMYRLRLLQDATN showed an amyloid nucleation score of 0.259 ± 0.65. With IVNLPSYYRASRQEDVVKGR the amyloid nucleation score was 0.75 ± 0.36. In the case of IVPRIKSAMLLKF, the amyloid nucleation score is reported as -0.301 ± 0.21. With IVQRLPVFKFLMYELCLLNG the amyloid nucleation score was -0.894 ± 0.38. With IVSKDRQNFVRCKDSRDHDV the amyloid nucleation score was -0.002 ± 0.39. IVSLCFNNWGSYRVNGQYLY showed an amyloid nucleation score of 6.564 ± 0.033. Work on IVTLVSDAYSKLTRLMNSVS yielded an amyloid nucleation score of -0.561 ± 0.23. IVVSKVLLIWFPLLRRGANL gave an amyloid nucleation score of 0.159 ± 0.49. For IVVVLWTFFDG, the amyloid nucleation score was -1.09 ± 0.55. For IWESSIYLNEETNDCLEKL, the amyloid nucleation score was “inactive”. For IWLVQGTAFPGMLSGQGWLL, the amyloid nucleation score was 0.147 ± 0.76. IWRAQTSWSSSMFTWAVGLR gave an amyloid nucleation score of 1.4 ± 0.33. In the case of IWRSRKLHDMYTVVRGVASD, the amyloid nucleation score is reported as 0.182 ± 0.56. For IWVGSILTQSPVVDGYFRCR, the amyloid nucleation score was 0.145 ± 0.35. IWVYFTQHRWRLGKNVGQSC gave an amyloid nucleation score of 0.586 ± 0.51. Substance IYHLPNR has an amyloid nucleation score of 5.988 ± 0.035. In the case of IYLVSNLMGYKCFLSNHLAR, the amyloid nucleation score is reported as 0.151 ± 0.32. Substance IYNNLTCWSDASHGVCFGMD has an amyloid nucleation score of 4.67 ± 0.058. IYSEDGRAMASMIHVSRKHG showed an amyloid nucleation score of 0.91 ± 0.43.
